# Test results as given in patent US20030219857.
# T1: β-casein (UniProt P02666)
# T1 sequence: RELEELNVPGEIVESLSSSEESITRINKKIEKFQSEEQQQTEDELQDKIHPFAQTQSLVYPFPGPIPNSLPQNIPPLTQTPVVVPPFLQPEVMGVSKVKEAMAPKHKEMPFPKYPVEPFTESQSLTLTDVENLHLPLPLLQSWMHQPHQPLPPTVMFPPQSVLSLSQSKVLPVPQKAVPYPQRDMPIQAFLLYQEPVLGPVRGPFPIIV
# B1: recombinant 6X-His-TGase fusion protein of Streptomyces mobaraensis ATCC 29032 (enzyme, UniProt P81453 77-407, looked up)
# Protein-glutamine gamma-glutamyltransferase: DSDDRVTPPAEPLDRMPDPYRPSYGRAETVVNNYIRKWQQVYSHRDGRKQQMTEEQREWLSYGCVGVTWVNSGQYPTNRLAFASFDEDRFKNELKNGRPRSGETRAEFEGRVAKESFDEEKGFQRAREVASVMNRALENAHDESAYLDNLKKELANGNDALRNEDARSPFYSALRNTPSFKERNGGNHDPSRMKAVIYSKHFWSGQDRSSSADKRKYGDPDAFRPAPGTGLVDMSRDRNIPRSPTSPGEGFVNFDYGWFGAQTEADADKTVWTHGNHYHAPNGSLGAMHVYESKFRNWSEGYSDFDRGAYVITFIPKSWNTAPDKVKQGWP
# modifications: N-terminal 6xHis tag
# Experiments:
# [1] = target: ovalbumin, native (UniProt P01012)
# ovalbumin, native, sequence (P01012 2-386): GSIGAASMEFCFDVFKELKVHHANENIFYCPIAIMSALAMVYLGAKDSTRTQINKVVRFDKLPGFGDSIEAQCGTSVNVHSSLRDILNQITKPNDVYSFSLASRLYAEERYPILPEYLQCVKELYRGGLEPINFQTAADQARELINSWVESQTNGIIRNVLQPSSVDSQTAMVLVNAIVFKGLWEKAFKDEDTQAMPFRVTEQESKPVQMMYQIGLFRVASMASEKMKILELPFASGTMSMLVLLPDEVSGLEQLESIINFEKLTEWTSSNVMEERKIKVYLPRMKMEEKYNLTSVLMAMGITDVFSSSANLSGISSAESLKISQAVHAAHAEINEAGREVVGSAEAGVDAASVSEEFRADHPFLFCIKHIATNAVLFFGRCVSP
# [2] = target: modified ovalbumin (denatured and partially refolded) (UniProt P01012)
# modified ovalbumin (denatured and partially refolded), sequence (P01012 2-386): as above
# [3] = test system: β-amyloid peptide (1-42)
# [4] = target: glucose oxidase (UniProt P13006)
# glucose oxidase, sequence (P13006 23-605): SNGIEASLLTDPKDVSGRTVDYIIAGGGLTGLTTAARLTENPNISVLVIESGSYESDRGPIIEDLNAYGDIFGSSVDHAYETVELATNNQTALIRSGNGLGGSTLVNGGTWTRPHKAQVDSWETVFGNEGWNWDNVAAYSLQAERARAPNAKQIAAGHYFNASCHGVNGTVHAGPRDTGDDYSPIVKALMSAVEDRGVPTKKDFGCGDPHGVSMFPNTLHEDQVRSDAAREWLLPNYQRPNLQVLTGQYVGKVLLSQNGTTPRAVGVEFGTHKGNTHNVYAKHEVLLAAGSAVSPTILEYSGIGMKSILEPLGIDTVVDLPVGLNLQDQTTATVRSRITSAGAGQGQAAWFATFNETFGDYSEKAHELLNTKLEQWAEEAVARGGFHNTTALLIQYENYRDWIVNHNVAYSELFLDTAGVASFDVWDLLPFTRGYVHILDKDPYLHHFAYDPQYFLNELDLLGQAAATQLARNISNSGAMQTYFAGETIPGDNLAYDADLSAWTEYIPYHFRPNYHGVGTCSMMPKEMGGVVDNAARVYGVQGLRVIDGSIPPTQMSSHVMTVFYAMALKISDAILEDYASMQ
# [5] = target: T1, β-casein
# [6] = test system: synthetic Bovine Serum Albumin peptide 5 (BSA5)
# [7] = target: modified bovine serum albumin (denatured and partially refolded) (UniProt P02769)
# modified bovine serum albumin (denatured and partially refolded), sequence (P02769 25-607): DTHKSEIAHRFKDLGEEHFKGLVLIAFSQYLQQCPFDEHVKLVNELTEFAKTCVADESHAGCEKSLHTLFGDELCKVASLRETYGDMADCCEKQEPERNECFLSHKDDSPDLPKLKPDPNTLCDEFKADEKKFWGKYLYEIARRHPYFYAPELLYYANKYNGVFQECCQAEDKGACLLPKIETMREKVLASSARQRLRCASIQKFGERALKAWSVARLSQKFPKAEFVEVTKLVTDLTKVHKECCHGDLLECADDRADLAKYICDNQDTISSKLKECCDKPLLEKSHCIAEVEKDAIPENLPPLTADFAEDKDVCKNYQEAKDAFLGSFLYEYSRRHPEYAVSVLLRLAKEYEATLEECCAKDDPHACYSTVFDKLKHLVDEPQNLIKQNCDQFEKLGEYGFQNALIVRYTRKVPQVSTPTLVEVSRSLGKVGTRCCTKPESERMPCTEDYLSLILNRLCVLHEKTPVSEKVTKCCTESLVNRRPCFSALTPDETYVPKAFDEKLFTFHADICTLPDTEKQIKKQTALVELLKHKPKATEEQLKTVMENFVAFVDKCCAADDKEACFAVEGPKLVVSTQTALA
# [8] = test system: recombinant serum albumin
# recombinant serum albumin, sequence (P02768 25-609): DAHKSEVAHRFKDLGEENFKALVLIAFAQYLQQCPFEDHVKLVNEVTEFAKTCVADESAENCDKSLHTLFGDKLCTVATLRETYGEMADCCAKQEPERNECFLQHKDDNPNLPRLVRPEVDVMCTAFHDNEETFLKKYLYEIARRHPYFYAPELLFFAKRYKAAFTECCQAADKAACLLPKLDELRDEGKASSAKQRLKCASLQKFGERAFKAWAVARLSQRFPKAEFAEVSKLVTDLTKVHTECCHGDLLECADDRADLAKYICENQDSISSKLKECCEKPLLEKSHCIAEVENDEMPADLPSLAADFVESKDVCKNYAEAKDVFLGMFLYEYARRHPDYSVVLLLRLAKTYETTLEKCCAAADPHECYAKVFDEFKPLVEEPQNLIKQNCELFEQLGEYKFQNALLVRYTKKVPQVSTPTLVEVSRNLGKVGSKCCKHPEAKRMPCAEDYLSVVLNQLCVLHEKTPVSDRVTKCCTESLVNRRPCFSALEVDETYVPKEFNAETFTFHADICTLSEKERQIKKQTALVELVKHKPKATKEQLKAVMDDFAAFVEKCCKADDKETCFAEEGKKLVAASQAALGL
# [9] = test system: myelin basic protein (MBP)
# myelin basic protein (MBP), sequence (P02687 whole entry): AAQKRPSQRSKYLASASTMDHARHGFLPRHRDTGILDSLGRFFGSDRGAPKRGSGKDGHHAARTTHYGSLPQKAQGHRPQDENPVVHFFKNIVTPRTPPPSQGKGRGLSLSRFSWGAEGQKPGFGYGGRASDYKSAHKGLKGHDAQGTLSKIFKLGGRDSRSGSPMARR
# [10] = test system: histone protein, native
# [11] = test system: modified histone H3 protein (denatured and partially refolded)
# [12] = target: bovine serum albumin (BSA), native (UniProt P02769)
# bovine serum albumin (BSA), native, sequence (P02769 25-607): as the sequence (P02769 25-607) above
protein,measurement,setting,value
B1,cross-linking of native non-substrate proteins,[1],there was no cross-linking even in the presence of a large amount of the purified recombinant transglutaminase fusion proteins in the activation solution
same,cross-linking seen on SDS-PAGE,[2],"only the reactions containing the modified protein species of BSA, histine H3 protein, glucose oxidase, and ovalbumin were cross-linked by the purified recombinant SM TGase"
same,"cross-linking seen on SDS-PAGE, 1, 2 and 3 hours",[3],The β-amyloid (1-42) peptide can be cross-linked by the recombinant transglutaminase as shown as a smear of a mixture of cross-linked peptides on the top of the separating gel and the disappearance of the peptide bands at the bottom of the SDS-PAGE
same,cross-linking of native non-substrate proteins,[4],there was no cross-linking even in the presence of a large amount of the purified recombinant transglutaminase fusion proteins in the activation solution
same,"cross-linking of a mixture of β-casein and glucose oxidase, SDS-PAGE",[5],"both protein species can be cross-linked by the purified recombinant SM TGase, as indicated by the disappearance of the two monomer bands"
same,"cross-linking of β-casein seen on SDS-PAGE, 0 mM DTT",[5],"in the absence of DTT (lane 1 and 2), the recombinant SM TGase had no cross-linking activity on β-casein"
same,"cross-linking of β-casein seen on SDS-PAGE, about 2 mM DTT",[5],the recombinant SM TGase was activated and β-casein run as a mixture of cross-linked polymer and monomer
same,"cross-linking of β-casein seen on SDS-PAGE, about 10 mM DTT",[5],the catalytic cross-linking activity of SM TGase resulted in cross-linking of all detectable β-casein substrates in the reaction
same,cross-linking seen on SDS-PAGE,[5],the cross-linked (CL) β-casein migrated as a smear on the SDS-PAGE gel indicating a mixture of high molecular weight polymers of different length
same,"cross-linking seen on SDS-PAGE, rising amounts of SM TGase",[6],"increased amount of recombinant SM TGase corresponding to an increase in cross-linked (CL) BSA5 peptide, which run as a large molecular weight polymer on the top of the separating gel"
same,cross-linking seen on SDS-PAGE,[7],"only the reactions containing the modified protein species of BSA, histine H3 protein, glucose oxidase, and ovalbumin were cross-linked by the purified recombinant SM TGase"
same,cross-linking seen on SDS-PAGE,[8],the cross-linking reaction containing recombinant serum albumin revealed a mixture of very high molecular weight polymers of different length
same,cross-linking of native non-substrate proteins,[9],there was no cross-linking even in the presence of a large amount of the purified recombinant transglutaminase fusion proteins in the activation solution
same,cross-linking of native non-substrate proteins,[10],there was no cross-linking even in the presence of a large amount of the purified recombinant transglutaminase fusion proteins in the activation solution
same,cross-linking seen on SDS-PAGE,[10],complete and partial cross-linking was both observed for native histine H3 protein under the condition tested
same,cross-linking seen on SDS-PAGE,[11],"only the reactions containing the modified protein species of BSA, histine H3 protein, glucose oxidase, and ovalbumin were cross-linked by the purified recombinant SM TGase"
same,cross-linking of native non-substrate proteins,[12],there was no cross-linking even in the presence of a large amount of the purified recombinant transglutaminase fusion proteins in the activation solution
